We go through two substances from US20030077318A1.

In experiment [1] the target is L^d on transfected Drosophila S2 (fly) cells with p2Ca peptide (mouse) (UniProt P01887). In words: cell-based or functional assay.
Experiment [2] deals with L^d on transfected Drosophila S2 (fly) cells with QL9 peptide (mouse) (UniProt P01887). The experiment in a line: cell-based or functional assay.
Experiment [3] has as its target recombinant biotinylated L^d immobilized on avidin-coated sheep red blood cells (mouse) (UniProt P01897). In words: flow cytofluorometry of L^d on avidin-coated SRBC.

Chain of L^d on transfected Drosophila S2 (fly) cells with QL9 peptide (mouse) (P01897 25-362, chain 1 of 2): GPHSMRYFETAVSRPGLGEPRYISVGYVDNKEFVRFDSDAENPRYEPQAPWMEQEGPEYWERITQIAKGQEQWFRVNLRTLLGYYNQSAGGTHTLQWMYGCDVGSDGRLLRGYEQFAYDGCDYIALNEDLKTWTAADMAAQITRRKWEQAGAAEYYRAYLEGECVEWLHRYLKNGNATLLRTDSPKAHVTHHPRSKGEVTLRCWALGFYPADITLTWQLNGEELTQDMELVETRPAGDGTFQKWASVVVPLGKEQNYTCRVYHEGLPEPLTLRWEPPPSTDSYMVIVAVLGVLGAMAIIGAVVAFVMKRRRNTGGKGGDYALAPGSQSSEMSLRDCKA
Chain of L^d on transfected Drosophila S2 (fly) cells with QL9 peptide (mouse) (P01887 21-119, chain 2 of 2): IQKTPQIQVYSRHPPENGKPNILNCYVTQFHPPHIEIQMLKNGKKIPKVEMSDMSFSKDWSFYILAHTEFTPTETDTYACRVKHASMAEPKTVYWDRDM
Chain of L^d on transfected Drosophila S2 (fly) cells with p2Ca peptide (mouse) (P01897 25-362, chain 1 of 2): as the sequence (P01897 25-362, chain 1 of 2) above
Chain of L^d on transfected Drosophila S2 (fly) cells with p2Ca peptide (mouse) (P01887 21-119, chain 2 of 2): as the sequence (P01887 21-119, chain 2 of 2) above
Chain of recombinant biotinylated L^d immobilized on avidin-coated sheep red blood cells (mouse) (P01897 25-362): as the sequence (P01897 25-362, chain 1 of 2) above

As to “2C T-cell receptor (TCR), on CD8+ lymph node T cells of 2C TCR transgenic mice”, in experiment [1], the IL-2 Production (Day 2), ^3HTdR incorporation of CTLL; L^d + B7.1 cells combined with L^d ICAM-1 cells came to 300 cpm; the IL-2 Production (Day 2), ^3HTdR incorporation of CTLL; fly cells expressing L^d worked out at 200 cpm; the IL-2 Production (Day 2), ^3HTdR incorporation of CTLL; fly cells expressing L^d + B7.1 worked out at 200 cpm; the IL-2 Production (Day 2), ^3HTdR incorporation of CTLL; fly cells expressing L^d + B7.1 + ICAM-1 was 64600 cpm. Further, in experiment [1], the IL-2 Production (Day 2), ^3HTdR incorporation of CTLL; fly cells expressing L^d + ICAM-1 came out at 100 cpm; the Proliferation (Day 3), ^3HTdR incorporation; L^d + B7.1 cells combined with L^d ICAM-1 cells was determined as 1500 cpm; the Proliferation (Day 3), ^3HTdR incorporation; fly cells expressing L^d was 200 cpm; the Proliferation (Day 3), ^3HTdR incorporation; fly cells expressing L^d + B7.1 amounted to 300 cpm. In addition, in experiment [1], the Proliferation (Day 3), ^3HTdR incorporation; fly cells expressing L^d + B7.1 + ICAM-1 turned out to be 142000 cpm and the Proliferation (Day 3), ^3HTdR incorporation; fly cells expressing L^d + ICAM-1 was 1500 cpm. For the same substance, in experiment [2], the IL-2 Production (Day 2), ^3HTdR incorporation of CTLL; L^d + B7.1 cells combined with L^d ICAM-1 cells amounted to 500 cpm; the IL-2 Production (Day 2), ^3HTdR incorporation of CTLL; fly cells expressing L^d stood at 100 cpm; the IL-2 Production (Day 2), ^3HTdR incorporation of CTLL; fly cells expressing L^d + B7.1 was 400 cpm; the IL-2 Production (Day 2), ^3HTdR incorporation of CTLL; fly cells expressing L^d + B7.1 + ICAM-1 stood at 159000 cpm. Moreover, in experiment [2], the IL-2 Production (Day 2), ^3HTdR incorporation of CTLL; fly cells expressing L^d + ICAM-1 was 200 cpm; the Proliferation (Day 3), ^3HTdR incorporation; L^d + B7.1 cells combined with L^d ICAM-1 cells stood at 133000 cpm; the Proliferation (Day 3), ^3HTdR incorporation; fly cells expressing L^d is 200 cpm; the Proliferation (Day 3), ^3HTdR incorporation; fly cells expressing L^d + B7.1 came out at 60900 cpm. In addition, in experiment [2], the Proliferation (Day 3), ^3HTdR incorporation; fly cells expressing L^d + B7.1 + ICAM-1 is 264000 cpm and the Proliferation (Day 3), ^3HTdR incorporation; fly cells expressing L^d + ICAM-1 is 73900 cpm.

With monoclonal antibody 30.5.7 (anti-L^d), the percent of cells labeled in experiment [3] is 99.8%.
